The supplement of paper PMC9170038

Test system: MS2 coat protein
Experiment: apparent KD of MS2 coat protein; higher = weaker reporter binding
Conditions: Eterna round: R107
In short: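 Apparent KD per design is the median of normalised cluster binding-curve fits. Designed RNA switches transcribed on-chip from Illumina sequencing clusters were titrated with SNAP-549-labelled MS2 coat protein in twofold steps from 0.7 or 1.5 nM to 3 µM, with 0.8–1.5 h down to 10–20 min per step. Buffer: 100 mM Tris-HCl pH 7.5, 80 mM KCl, 4 mM MgCl2, without or with constant ligand.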

[1] = input ligand: theophylline 20 uM
[2] = input ligand: theophylline 2 mM
[3] = input ligand: tryptophan 2.4 mM

Sequence	apparent KD of MS2 coat protein (input ligand: arginine 13.2 mM)	apparent KD of MS2 coat protein (input ligand: none)	apparent KD of MS2 coat protein [1]	apparent KD of MS2 coat protein [2]	apparent KD of MS2 coat protein [3]
UUGGGUAUGCGAAGGAGCGGGAAAUAUAUAUAUAUAAUCCUAACAUGAGGAUCACCCAUGUCCCAGGUAGGUCGCGCAUAUUUGG [12.J]	40.6 nM	62.9 nM	88.9 nM	106 nM	67.8 nM
AAUAAGAUCCUCAUGUGAGUCGUACCAUAACGAGGACCGGUACGGCCGCCACUCGAACAUGAGGAUCACCCAUGUAGGUACGACA [M'-T'-T-MS2-T'' - Design 8]	49.8 nM		320 nM	882 nM	
GCAUCCUAGUCGGCCGCCACUACAACAUGAGGAUCACCCAUGUGUGGGAGAUCCGUCCUACGAAGUAGGACCGGGACUAGGAUGC [(T1)-(M1)-(M2)-(T)''-(M)'-(T)'-(T2)_Design5_2/18/17]	110 nM		337 nM	324 nM	
UGAUGGUUCGGAAGGAGCGUGUAAGAACAAGAACAUGAGGAUCACCCAUGUAUUAAUUUAACACAGGUAGGUCGCCGGGUUAUUG [11.J]	20.9 nM	16.3 nM	23.1 nM	22.2 nM	14.4 nM
AAUAUUAACUGAAGGAGCGUGUUAUGUACAUGAGGAUCACCCAUGUAUAGGGUAAUACUAACACAGGUAGGUCGCAGAAUAAUUA [JR_SSArginiB_Sub010]	20.2 nM	20.6 nM	37.9 nM	22 nM	18.5 nM
GGACUCGUCACGGCCGCCACUGCGGUGGUGUGACAUGAGGAUCACCCAUGUUGUCAUGCGGCCCUUAGGACCGGGUGUCGCGUCC [#1 Exclusion - Tryptophan B Attempt #25 (HarryS)]	49.7 nM		100 nM	93.8 nM	
UGAUGGUGCGGAAGGAGCGUGUAAGAACAAGAACAUGAGGAUCACCCAUGUAUUAAUUUAACACAGGUAGGUCGCCGUGUUAUUG [11.K]	29.6 nM	35.5 nM	39.3 nM	29.6 nM	20.2 nM
UAACAUGAGGAUCACCCAUGUAUACUAAGUCGAGGACCGGUACGGCCGCCACUCGAAAUUGAAGAAUUGGCGGUAAAUGUAAGUA [JR_ExcTryptoA_Sub019]	12.6 nM		15.9 nM	14.3 nM	
UUUGAUUAGAGAAGGAGCGUGAUAUUUAUAUAGUGUGUAUGUACAUGAGGAUCACCCAUGUCACAGGUAGGUCGCUCUGAUAAGG [JR_Nu_ExcArginiB_Sub030]	14.8 nM	13.2 nM	21.6 nM	13.2 nM	16.1 nM
AGUGGGUGUUAUGAUACCAGCGUAAUACACAACAUGAGGAUCACCCAUGUGGAGCCUCGCCGCCCUUGGCAGCAUUGGGCCCGCA [theeternabot_sameState_MS2_Theo_B_4]	115 nM		237 nM		223 nM
GGAAACCAAAGCGAUACCAGCGUACAUGAAAAGAGCGAAAACAUGAGGAUCACCCAUGUACGCCCUUGGCAGCGCAAAACCAAGG	21.4 nM	44.3 nM	50.8 nM	103 nM	33.3 nM
GGGAGGGAGGCGGCCGCCACUGAUUUUCAUAUAUAUAUAACAUGAGGAUCACCCAUGUAGAUAUGCAGGACCGGGCCUUUUUUUU [aaaI]	21.3 nM		30.1 nM	19.1 nM	
ACAUGAGGAUCACCCAUGUGCCGAGUUGAUACCAGACCCGCACUAGUCCCUUGGCAGCAACUACGUGUGGGACACCCAUGUUAAG [qaqmullin]	29.1 nM		85.5 nM		47.9 nM
CAGGUGGACUGAAGGAGCGAGUCAGGGACUUACAUGAGGAUCACCCAUGUCACGGUCGUCACUCAGGUAGGUCGCAGUUCGCCUC [Diinan]	113 nM	188 nM	279 nM	628 nM	231 nM
GAUAUGGAAACAUGUCAGAUCCUUACCGGUCGAGGACCGGUACGGCCGCCACUCGAAAACGAGGAACAUGAGGAUCACCCAUGUA [Ex Tryptophan A 20]	32.7 nM		50.4 nM	49.5 nM	
AGAAUAUAGUCGGCCGCCACUCUUCAUACAUGAGGAUCACCCAUGUUUAAUUCUUGGAUAUUCUUGAGGACCGGGACAUAGGCAU [JR_SSTryptoB_Sub019]	18 nM		23.1 nM	21.6 nM	
AUUAAUUUAUUUCUCAAUUUAAUUUCAGAAGGAGCGUGAUGUUUCACAGGUAGGUCGCUGUUUACAUGAGGAUCACCCAUGUUUU [JR_SSArginiA_Sub004]	32 nM	40.2 nM	44.4 nM	40.4 nM	31.8 nM
AUGCAUAGCGGAAGGAGCGCAAUAGAAUGACAUGAGGAUCACCCAUGUGUGUGAUGUGGGUUGCAGGUAGGUCGCCGAGUGGCAU [#11 Exclusion - Arginine B]	77.6 nM	80.9 nM	95.9 nM	127 nM	59.1 nM
CGAUACGUAACUGAUACCAGUGUACUGACAUGAGGAUCACCCAUGUUGGGUUUUGUUGUACACCCUUGGCAGCAGAAUCGUAUCG [AstrosExyTheB#18]	52.1 nM		77.5 nM		59.9 nM
ACAUGAGGGAUGGAUACCAGCGACAUGAGGAUCACCCAUGUAUGAGGAUCAGCCAUGUUAUGCCCUUGGCAGCCACGAACAUCAG [EDEMULLIN]	27.3 nM		45.2 nM		29.8 nM
CCUAUGCAGUCGGCCGCCACUGAAAACAGCCUCAAAAUAAAUAUAACAUGAGGAUCACCCAUGUACAGGACCGGGACUGUAUAGG [Ex Tryptophan B 11]	81 nM		200 nM	180 nM	
GAAACGUAGGUGGAGCGGUGAAAUGGCGAUACCAGCGUGGAAACACGCCCUUGGCAGCGUUAGAACAUGAGGAUCACCCAUGUUU [#21 Exclusion-TheophyllineA]	19.3 nM		62.4 nM		26.4 nM
CUAGACUGUGCGGCCGCCACUGGCUCAUCCUGCAUUACAUGAGGAUCACCCAUGUUGCGGCCUCCCAGGACCGGGCAUAGUCUGC [Riinzaa]	91 nM		474 nM	734 nM	
UGCACUCAUGCGGCCGCCACUGUCGGCCGCCACUAAACAUGAGGAUCACCCAUGUAGGACCGGGACAGGACCGGGCAUGGGUGCU [TryBS - #DoubleAptamer 2]	12.9 nM	15.7 nM	20.7 nM	13.8 nM	9.97 nM
AUCCACAGCCGAAGGAGCGCAGUAGGAUGACAUGAGGAUCACCCAUGUGUGUGAUGUGGAUUGCAGGUAGGUCGCGGAGUGGAUU [Exclusion - Arginine B (Freestyle 9)]	165 nM	54.5 nM	82 nM	60.1 nM	46.4 nM
CCGGUUAGGACGGCCGCCACUGUGGCUACGGUACAUGAGGAUCACCCAUGUUUGUGGUUGAUCUACAGGACCGGGUCCUGACACG [Eronri]	124 nM	247 nM	1210 nM	806 nM	247 nM
CUAUAAGUAACUGAUACCAGUGUACUGACAUGAGGAUCACCCAUGUUGGGUUUUGUUGUACACCCUUGGCAGCAGAAUCUUAUAG [AstrosExyTheB#14]	38.9 nM	63.8 nM	70.3 nM	111 nM	72.5 nM
